Starred links: 1 amine or outer side, 2 acyl side, 3 side chain; linkers in the order of their positions; H or OH if unused. Non-standard residues stand in square brackets, D forms with d. Groups on a side chain read outwards from the residue. No end group written: not given here. *: point of attachment. C18 diacid = O=C(O)CCCCCCCCCCCCCCCCC(=O)*; γGlu = O=C(O)[C@H](CCC(=O)[*:2])N[*:1]; Ac4c = NC1(C(=O)O)CCC1; AEEA = NCCOCCOCC(=O)O; Aib = CC(C)(N)C(=O)O
Legend:
human GLP-1 receptor [1] = target: T1, human GLP-1 receptor (human, UniProt P43220 24-463); test: cell-based or functional assay
human glucagon receptor [2] = target: T2, human glucagon receptor (human, UniProt P47871 26-477); test: cell-based or functional assay
human GLP-1 receptor [3] = target: T1, human GLP-1 receptor; test: displacement of [125I]-GLP-1-(7-36)NH2 from BHK membranes with human GLP-1R, SPA, no serum albumin
human glucagon receptor [4] = target: T2, human glucagon receptor; test: displacement of [125I]-glucagon from BHK membranes with human glucagon receptor, SPA, no serum albumin

T2 sequence (P47871 26-477): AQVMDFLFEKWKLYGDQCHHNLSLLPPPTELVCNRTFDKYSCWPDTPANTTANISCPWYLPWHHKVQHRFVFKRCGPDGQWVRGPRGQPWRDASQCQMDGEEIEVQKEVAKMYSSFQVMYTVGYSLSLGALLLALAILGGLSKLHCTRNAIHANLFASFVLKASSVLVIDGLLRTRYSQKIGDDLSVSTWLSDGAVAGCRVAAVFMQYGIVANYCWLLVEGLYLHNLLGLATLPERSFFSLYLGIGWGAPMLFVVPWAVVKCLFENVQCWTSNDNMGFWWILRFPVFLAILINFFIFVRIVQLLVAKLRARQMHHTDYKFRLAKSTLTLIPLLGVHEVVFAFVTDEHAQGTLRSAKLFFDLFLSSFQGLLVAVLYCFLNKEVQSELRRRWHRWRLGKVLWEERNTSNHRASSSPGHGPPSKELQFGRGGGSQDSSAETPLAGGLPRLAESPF

Binder | GLP-1R EC50 (pM) [Assay (I)(a)], CRE luciferase reporter, BHK cells (human GLP-1 receptor [1]) [pM] | GlucagonR EC50 (pM), [Assay (I)(b)], CRE luciferase reporter, BHK cells (human glucagon receptor [2]) [pM] | IC50 (human GLP-1 receptor [3]) [nM] | IC50 (human glucagon receptor [4]) [nM]
H[Ac4c]QGTFTSDLSKYLESRRAQEFVQWLIK([γGlu-AEEA-AEEA-γGlu-γGlu-C18 diacid])T-NH2 (N-terminus assumed; SMILES CC[C@H](C)[C@H](NC(=O)[C@H](CC(C)C)NC(=O)[C@H](Cc1c[nH]c2ccccc12)NC(=O)[C@H](CCC(N)=O)NC(=O)[C@@H](NC(=O)[C@H](Cc1ccccc1)NC(=O)[C@H](CCC(=O)O)NC(=O)[C@H](CCC(N)=O)NC(=O)[C@H](C)NC(=O)[C@H](CCCNC(=N)N)NC(=O)[C@H](CCCNC(=N)N)NC(=O)[C@H](CO)NC(=O)[C@H](CCC(=O)O)NC(=O)[C@H](CC(C)C)NC(=O)[C@H](Cc1ccc(O)cc1)NC(=O)[C@H](CCCCN)NC(=O)[C@H](CO)NC(=O)[C@H](CC(C)C)NC(=O)[C@H](CC(=O)O)NC(=O)[C@H](CO)NC(=O)[C@@H](NC(=O)[C@H](Cc1ccccc1)NC(=O)[C@@H](NC(=O)CNC(=O)[C@H](CCC(N)=O)NC(=O)C1(NC(=O)[C@@H](N)Cc2c[nH]cn2)CCC1)[C@@H](C)O)[C@@H](C)O)C(C)C)C(=O)N[C@@H](CCCCNC(=O)CC[C@H](NC(=O)COCCOCCNC(=O)COCCOCCNC(=O)CC[C@H](NC(=O)CC[C@H](NC(=O)CCCCCCCCCCCCCCCCC(=O)O)C(=O)O)C(=O)O)C(=O)O)C(=O)N[C@H](C(N)=O)[C@@H](C)O, also called Chem. 38; Chem 38) | 2 | 12 | 0.3 | 2.7
H[Aib]QGTFTSDVSKYLDARRAQDFVQWLIK([γGlu-AEEA-AEEA-γGlu-γGlu-C18 diacid])T-NH2 (N-terminus assumed; SMILES CC[C@H](C)[C@H](NC(=O)[C@H](CC(C)C)NC(=O)[C@H](Cc1c[nH]c2ccccc12)NC(=O)[C@H](CCC(N)=O)NC(=O)[C@@H](NC(=O)[C@H](Cc1ccccc1)NC(=O)[C@H](CC(=O)O)NC(=O)[C@H](CCC(N)=O)NC(=O)[C@H](C)NC(=O)[C@H](CCCNC(=N)N)NC(=O)[C@H](CCCNC(=N)N)NC(=O)[C@H](C)NC(=O)[C@H](CC(=O)O)NC(=O)[C@H](CC(C)C)NC(=O)[C@H](Cc1ccc(O)cc1)NC(=O)[C@H](CCCCN)NC(=O)[C@H](CO)NC(=O)[C@@H](NC(=O)[C@H](CC(=O)O)NC(=O)[C@H](CO)NC(=O)[C@@H](NC(=O)[C@H](Cc1ccccc1)NC(=O)[C@@H](NC(=O)CNC(=O)[C@H](CCC(N)=O)NC(=O)C(C)(C)NC(=O)[C@@H](N)Cc1c[nH]cn1)[C@@H](C)O)[C@@H](C)O)C(C)C)C(C)C)C(=O)N[C@@H](CCCCNC(=O)CC[C@H](NC(=O)COCCOCCNC(=O)COCCOCCNC(=O)CC[C@H](NC(=O)CC[C@H](NC(=O)CCCCCCCCCCCCCCCCC(=O)O)C(=O)O)C(=O)O)C(=O)O)C(=O)N[C@H](C(N)=O)[C@@H](C)O, also called Chem. 39; Chem 39) | 1 | 24 | 0.1 | 4.6
H[Aib]QGTFTSDLSKYLDVRRAQDFVQWLIK([γGlu-AEEA-AEEA-γGlu-γGlu-C18 diacid])T-NH2 (N-terminus assumed; SMILES CC[C@H](C)[C@H](NC(=O)[C@H](CC(C)C)NC(=O)[C@H](Cc1c[nH]c2ccccc12)NC(=O)[C@H](CCC(N)=O)NC(=O)[C@@H](NC(=O)[C@H](Cc1ccccc1)NC(=O)[C@H](CC(=O)O)NC(=O)[C@H](CCC(N)=O)NC(=O)[C@H](C)NC(=O)[C@H](CCCNC(=N)N)NC(=O)[C@H](CCCNC(=N)N)NC(=O)[C@@H](NC(=O)[C@H](CC(=O)O)NC(=O)[C@H](CC(C)C)NC(=O)[C@H](Cc1ccc(O)cc1)NC(=O)[C@H](CCCCN)NC(=O)[C@H](CO)NC(=O)[C@H](CC(C)C)NC(=O)[C@H](CC(=O)O)NC(=O)[C@H](CO)NC(=O)[C@@H](NC(=O)[C@H](Cc1ccccc1)NC(=O)[C@@H](NC(=O)CNC(=O)[C@H](CCC(N)=O)NC(=O)C(C)(C)NC(=O)[C@@H](N)Cc1c[nH]cn1)[C@@H](C)O)[C@@H](C)O)C(C)C)C(C)C)C(=O)N[C@@H](CCCCNC(=O)CC[C@H](NC(=O)COCCOCCNC(=O)COCCOCCNC(=O)CC[C@H](NC(=O)CC[C@H](NC(=O)CCCCCCCCCCCCCCCCC(=O)O)C(=O)O)C(=O)O)C(=O)O)C(=O)N[C@H](C(N)=O)[C@@H](C)O, also called Chem. 40; Chem 40) | 3 | 30 | 1.2 | 7.1
HXQGTFTSDYSRYLESRRARDFVQWLIKT (Acb at position 2; epsilon-N of Lys28 acylated with the substituent given in the name (17-carboxyheptadecanoyl-2xgGlu-Ado-gGlu-Ado-gGlu-Ado-gGlu-); C-terminal amide, also called Chem. 36; Chem 36) | 4 | 22 | 1.5 | 6.5
HXQGTFTSDYSRYLESRRARDFVQWLIKT (Aib at position 2; epsilon-N of Lys28 acylated with the substituent given in the name (17-carboxyheptadecanoyl-2xgGlu-Ado-gGlu-Ado-gGlu-Ado-gGlu-); C-terminal amide, also called Chem. 37; Chem 37) | 4 | 98 | 1.5 | 6.6
H[Aib]QGTFTSDYSKYLDARRARDFVAWLIK([γGlu-γGlu-AEEA-AEEA-γGlu-C18 diacid])T-NH2 (N-terminus assumed; SMILES CC[C@H](C)[C@H](NC(=O)[C@H](CC(C)C)NC(=O)[C@H](Cc1c[nH]c2ccccc12)NC(=O)[C@H](C)NC(=O)[C@@H](NC(=O)[C@H](Cc1ccccc1)NC(=O)[C@H](CC(=O)O)NC(=O)[C@H](CCCNC(=N)N)NC(=O)[C@H](C)NC(=O)[C@H](CCCNC(=N)N)NC(=O)[C@H](CCCNC(=N)N)NC(=O)[C@H](C)NC(=O)[C@H](CC(=O)O)NC(=O)[C@H](CC(C)C)NC(=O)[C@H](Cc1ccc(O)cc1)NC(=O)[C@H](CCCCN)NC(=O)[C@H](CO)NC(=O)[C@H](Cc1ccc(O)cc1)NC(=O)[C@H](CC(=O)O)NC(=O)[C@H](CO)NC(=O)[C@@H](NC(=O)[C@H](Cc1ccccc1)NC(=O)[C@@H](NC(=O)CNC(=O)[C@H](CCC(N)=O)NC(=O)C(C)(C)NC(=O)[C@@H](N)Cc1c[nH]cn1)[C@@H](C)O)[C@@H](C)O)C(C)C)C(=O)N[C@@H](CCCCNC(=O)CC[C@H](NC(=O)CC[C@H](NC(=O)COCCOCCNC(=O)COCCOCCNC(=O)CC[C@H](NC(=O)CCCCCCCCCCCCCCCCC(=O)O)C(=O)O)C(=O)O)C(=O)O)C(=O)N[C@H](C(N)=O)[C@@H](C)O, also called Chem. 32; Chem 32) | 2 | 7 | 0.3 | 0.9
H[Aib]QGTFTSDYSKYLDLRRARDFVAWLIK([γGlu-γGlu-AEEA-AEEA-γGlu-C18 diacid])T-NH2 (N-terminus assumed; SMILES CC[C@H](C)[C@H](NC(=O)[C@H](CC(C)C)NC(=O)[C@H](Cc1c[nH]c2ccccc12)NC(=O)[C@H](C)NC(=O)[C@@H](NC(=O)[C@H](Cc1ccccc1)NC(=O)[C@H](CC(=O)O)NC(=O)[C@H](CCCNC(=N)N)NC(=O)[C@H](C)NC(=O)[C@H](CCCNC(=N)N)NC(=O)[C@H](CCCNC(=N)N)NC(=O)[C@H](CC(C)C)NC(=O)[C@H](CC(=O)O)NC(=O)[C@H](CC(C)C)NC(=O)[C@H](Cc1ccc(O)cc1)NC(=O)[C@H](CCCCN)NC(=O)[C@H](CO)NC(=O)[C@H](Cc1ccc(O)cc1)NC(=O)[C@H](CC(=O)O)NC(=O)[C@H](CO)NC(=O)[C@@H](NC(=O)[C@H](Cc1ccccc1)NC(=O)[C@@H](NC(=O)CNC(=O)[C@H](CCC(N)=O)NC(=O)C(C)(C)NC(=O)[C@@H](N)Cc1c[nH]cn1)[C@@H](C)O)[C@@H](C)O)C(C)C)C(=O)N[C@@H](CCCCNC(=O)CC[C@H](NC(=O)CC[C@H](NC(=O)COCCOCCNC(=O)COCCOCCNC(=O)CC[C@H](NC(=O)CCCCCCCCCCCCCCCCC(=O)O)C(=O)O)C(=O)O)C(=O)O)C(=O)N[C@H](C(N)=O)[C@@H](C)O, also called Chem. 33; Chem 33) | 7 | 8 | 2.3 | 6.9
H[Aib]QGTFTSDYSKYLESRRAQDFVAWLIK([γGlu-γGlu-AEEA-AEEA-γGlu-C18 diacid])T-NH2 (N-terminus assumed; SMILES CC[C@H](C)[C@H](NC(=O)[C@H](CC(C)C)NC(=O)[C@H](Cc1c[nH]c2ccccc12)NC(=O)[C@H](C)NC(=O)[C@@H](NC(=O)[C@H](Cc1ccccc1)NC(=O)[C@H](CC(=O)O)NC(=O)[C@H](CCC(N)=O)NC(=O)[C@H](C)NC(=O)[C@H](CCCNC(=N)N)NC(=O)[C@H](CCCNC(=N)N)NC(=O)[C@H](CO)NC(=O)[C@H](CCC(=O)O)NC(=O)[C@H](CC(C)C)NC(=O)[C@H](Cc1ccc(O)cc1)NC(=O)[C@H](CCCCN)NC(=O)[C@H](CO)NC(=O)[C@H](Cc1ccc(O)cc1)NC(=O)[C@H](CC(=O)O)NC(=O)[C@H](CO)NC(=O)[C@@H](NC(=O)[C@H](Cc1ccccc1)NC(=O)[C@@H](NC(=O)CNC(=O)[C@H](CCC(N)=O)NC(=O)C(C)(C)NC(=O)[C@@H](N)Cc1c[nH]cn1)[C@@H](C)O)[C@@H](C)O)C(C)C)C(=O)N[C@@H](CCCCNC(=O)CC[C@H](NC(=O)CC[C@H](NC(=O)COCCOCCNC(=O)COCCOCCNC(=O)CC[C@H](NC(=O)CCCCCCCCCCCCCCCCC(=O)O)C(=O)O)C(=O)O)C(=O)O)C(=O)N[C@H](C(N)=O)[C@@H](C)O, also called Chem. 34; Chem 34) | 3 | 66 | 2.2 | 7
H[Ac4c]QGTFTSDLSKYLESRRAREFVQWLIK([γGlu-γGlu-AEEA-AEEA-γGlu-γGlu-C18 diacid])T-NH2 (also called Chem. 13; Chem 13) | 4 | 23 | 0.1 | 1.8

Source: patent US20170101454A1 (Novo Nordisk, published 2017)
